These results are taken from publication PMC3701320, “Crystal Structures of Malonyl-Coenzyme A Decarboxylase Provide Insights into Its Catalytic Mechanism and Disease-Causing Mutations” (Structure(London, England:1993), 2013).

In series [1] the target is Rhodopseudomonas palustris malonyl-CoA decarboxylase (RpMCD), residues 8-451 (Rhodopseudomonas palustris). Put plainly: multiangle static light scattering; oligomeric state in solution; data not shown.
The target in series [2] is Cupriavidus metallidurans malonyl-CoA decarboxylase (CmMCD), residues 57-473 (Cupriavidus metallidurans). Briefly: not stated; oligomeric state of CmMCD in solution; method not given.
Series [3] concerns the molecule itself. Briefly: SEC + AUC; analytical gel filtration on Superdex 200 in 10 mM HEPES pH 7.5, 150 mM NaCl; sedimentation velocity at 30,000 rpm, 4 °C, 50 μM HsMCD in the same buffer; oligomeric state in solution.
Series [4] deals with the molecule itself. Briefly: multiangle static light scattering; oligomeric state in solution; data not shown.

In the case of “Rhodopseudomonas palustris malonyl-CoA decarboxylase (RpMCD), residues 8-451 (enzyme)”, the stoichiometry N (usually a count of units in the complex or per binding partner) in series [1] stood at 4.
The molecule “Cupriavidus metallidurans malonyl-CoA decarboxylase (CmMCD), residues 57-473 (enzyme)” displayed a stoichiometry N in series [2] of 2.

B1: Wild-type human malonyl-coenzyme A decarboxylase (HsMCD), residues 40-491 (enzyme, UniProt O95822 40-491, looked up)
chain: MDELLRRAVPPTPAYELREKTPAPAEGQCADFVSFYGGLAETAQRAELLGRLARGFGVDHGQVAEQSAGVLHLRQQQREAAVLLQAEDRLRYALVPRYRGLFHHISKLDGGVRFLVQLRADLLEAQALKLVEGPDVREMNGVLKGMLSEWFSSGFLNLERVTWHSPCEVLQKISEAEAVHPVKNWMDMKRRVGPYRRCYFFSHCSTPGEPLVVLHVALTGDISSNIQAIVKEHPPSETEEKNKITAAIFYSISLTQQGLQGVELGTFLIKRVVKELQREFPHLGVFSSLSPIPGFTKWLLGLLNSQTKEHGRNELFTDSECKEISEITGGPINETLKLLLSSSEWVQSEKLVRALQTPLMRLCAWYLYGEKHRGYALNPVANFHLQNGAVLWRINWMADVSLRGITGSCGLMANYRYFLEETGPNSTSYLGSKIIKASEQVLSLVAQFQKNS
notes: Malonyl-CoA decarboxylase (MCD, E.C. 4.1.1.9), human, residues 40-491, corresponding to the mature mitochondrial form; The His6-tag is TEV-cleavable (vector pNIC28-Bsa4, GenBank EF198106); also called human MCD; Wild-type HsMCD
On to B1, for which the “stoichiometry N” value in series [3] was found to be 4.

B2: HsMCD E58A/K59A/E278A/E279A/K280A quintuple surface entropy reduction (SER) mutant, residues 40-491 (enzyme, human, UniProt O95822 40-491, looked up)
chain: MDELLRRAVPPTPAYELRAATPAPAEGQCADFVSFYGGLAETAQRAELLGRLARGFGVDHGQVAEQSAGVLHLRQQQREAAVLLQAEDRLRYALVPRYRGLFHHISKLDGGVRFLVQLRADLLEAQALKLVEGPDVREMNGVLKGMLSEWFSSGFLNLERVTWHSPCEVLQKISEAEAVHPVKNWMDMKRRVGPYRRCYFFSHCSTPGEPLVVLHVALTGDISSNIQAIVKEHPPSETAAANKITAAIFYSISLTQQGLQGVELGTFLIKRVVKELQREFPHLGVFSSLSPIPGFTKWLLGLLNSQTKEHGRNELFTDSECKEISEITGGPINETLKLLLSSSEWVQSEKLVRALQTPLMRLCAWYLYGEKHRGYALNPVANFHLQNGAVLWRINWMADVSLRGITGSCGLMANYRYFLEETGPNSTSYLGSKIIKASEQVLSLVAQFQKNS
notes: Malonyl-CoA decarboxylase (MCD), human, residues 40-491 (mature mitochondrial form) with five alanine substitutions for surface entropy reduction; The His6-tag is TEV-cleavable; Crystallised with a dimer in the asymmetric unit; the tetramer is generated through a crystallographic 2-fold axis; also called Quintuple SER mutant; SER quintuple mutant
B2: the binding result in series [3] is “binds”.

B3: Agrobacterium vitis malonyl-CoA decarboxylase (AvMCD), residues 1-448 (enzyme)
chain: MAGTSFLSDLLSGVTERGRALLFSGSKARDRVVDTDIETLCEMLLSSRGEASGMAIAAEILDRWSRFNAAEAVQFLHMLSDRFGAEAAALDKAIDAYRTDKSPMAVIALHNAAEPRRQELLRRLNLAPNGTQKLVRMRERLLETKEDRADLGAVDTDFAHLFSSWFNRGFLTLQPIDWTTPAHILEKIIKYEAVHEIAGWEELRRRLAPADRRCFAFFHPRLRDDPLVFVEVALTRSIPSAIADVLDESRDHIGADTATTAVFYSISNCQDGLRGISFGNFLIKQVVEDLRRDLPGLKEFVTLSPVPGFARWISKIRDPKSGFPLSPEDRNTLVLLDDPTWPEDKARADAVERILLPLAARYFITERTPDNRPVDPVARFHLGNGARLERLNFLGDRSVKAMRQAHGLMVNYLYKLEDIETNHEALAQRGEVAASPAVKALQGKIEPI
modifications: selenomethionyl (Se-Met labeled) protein
In the case of B3, the “stoichiometry N” value in series [4] is 4.
